# Measured values as given in article PMC314469, “Protein Interaction Networks by Proteome Peptide Scanning” (PLoS Biology, 2004).
# T1: Boi1 SH3 (BOI1_YEAST), P38041
# T1 chain: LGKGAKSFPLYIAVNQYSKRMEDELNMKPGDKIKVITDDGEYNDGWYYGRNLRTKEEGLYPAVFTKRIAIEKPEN
# T2: Rvs167 SH3 (RV167_YEAST), P39743
# T2 chain: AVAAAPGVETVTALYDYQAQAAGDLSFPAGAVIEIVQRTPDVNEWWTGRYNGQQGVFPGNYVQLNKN
# T3: Yfr024 SH3 (LSB3_YEAST), P43603
# T3 chain: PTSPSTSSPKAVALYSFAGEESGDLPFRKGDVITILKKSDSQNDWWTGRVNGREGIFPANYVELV
# T4: Boi2 SH3 (BOI2_YEAST), P39969
# T4 chain: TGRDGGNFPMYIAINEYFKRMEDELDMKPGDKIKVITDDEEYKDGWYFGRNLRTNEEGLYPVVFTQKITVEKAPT
# T5: Myo5 SH3 (MYO5_YEAST), Q04439
# T5 chain: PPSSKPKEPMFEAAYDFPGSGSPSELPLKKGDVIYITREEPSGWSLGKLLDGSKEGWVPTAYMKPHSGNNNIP
# T6: Yhr016c SH3 (YSC84_YEAST), P32793
# T6 chain: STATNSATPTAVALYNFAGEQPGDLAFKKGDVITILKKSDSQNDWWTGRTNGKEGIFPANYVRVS
# B1: YIL129C 688-701 (peptide)
# chain: LLVTKERPRFPEDD
# B2: YOL006C 316-329 (peptide)
# chain: LNLSKDAPVPPAPE
# B3: YOR231W 77-90 (peptide)
# chain: LNTMKKRPAPPSLP
# B4: YMR179W 684-697 (peptide)
# chain: LKKQKAIPSSPSGM
# B5: YBR055C 407-420 (peptide)
# chain: LLEERNNPDIPVDK
# B6: YOL125W 162-175 (peptide)
# chain: LMSLKRFPQLPSNT
# B7: YJL128C 180-193 (peptide)
# chain: LNPNRRAPRRPLST
# B8: YDR402C 27-40 (peptide)
# chain: LNFPKNIPTIPFYV
# B9: YBL101C 22-35 (peptide)
# chain: LNQSKGQPFQPSPT
# B10: YFL013C 529-542 (peptide)
# chain: LNRKKVTPQLPKVT
# B11: YLR072W 61-74 (peptide)
# chain: LNGLKSSPADPHLS
# B12: YJR005W 603-616 (peptide)
# chain: LNKTKLLPQSPILN
# B13: YBR239C 260-273 (peptide)
# chain: LNFKRLLPRDPSEK
# B14: YAR002W 346-359 (peptide)
# chain: LNATKISPSAPSKD
# B15: YER105C 312-325 (peptide)
# chain: LLPTKLIPSIPGGK
# B16: YKL216W 87-100 (peptide)
# chain: LNRQKNYPDAPAIF
# Target: T1, Boi1 SH3 (BOI1_YEAST), P38041
# Test: SPOT array
row,"normalised SPOT signal, Boehringer light units (BLU); mean over the file's lines of this peptide",Binder
1,126,B1
2,103,B2
3,97.3,B3
4,711,B4
5,85.4,B5
6,796,B6
7,4910,B7
8,92.6,B8
9,139,B9
10,384,B10
11,63.9,B11
12,93.4,B12
13,1070,B13
14,51.9,B14
15,-0,B15
16,71.2,B16

# Target: T2, Rvs167 SH3 (RV167_YEAST), P39743
# Test: SPOT array
row,"normalised SPOT signal, Boehringer light units (BLU); mean over the file's lines of this peptide",Binder
1,16.4,B1
2,128,B2
3,271,B3
4,35.2,B4
5,38.3,B5
6,1340,B6
7,1240,B7
8,53,B8
9,111,B9
10,75.9,B10
11,60.3,B11
12,35.5,B12
13,1630,B13
14,29.4,B14
15,17.2,B15
16,63.3,B16

# Target: T3, Yfr024 SH3 (LSB3_YEAST), P43603
# Test: SPOT array
row,"normalised SPOT signal, Boehringer light units (BLU); mean over the file's lines of this peptide",Binder
1,168,B1
2,0,B2
3,1440,B3
4,255,B4
5,38.8,B5
6,2420,B6
7,3720,B7
8,26.9,B8
9,16,B9
10,142,B10
11,2.4,B11
12,71.9,B12
13,1290,B13
14,38.8,B14
15,154,B15
16,38.6,B16

# Target: T4, Boi2 SH3 (BOI2_YEAST), P39969
# Test: SPOT array
row,"normalised SPOT signal, Boehringer light units (BLU); mean over the file's lines of this peptide",Binder
1,7.5,B1
2,19.2,B2
3,72.5,B3
4,16.1,B4
5,19.6,B5
6,294,B6
7,506,B7
8,-0,B8
9,0,B9
10,27.9,B10
11,39.1,B11
12,8.8,B12
13,57.4,B13
14,0,B14
15,3.5,B15
16,7.9,B16

# Target: T5, Myo5 SH3 (MYO5_YEAST), Q04439
# Test: SPOT array
row,"normalised SPOT signal, Boehringer light units (BLU); mean over the file's lines of this peptide",Binder
1,33.7,B1
2,161,B2
3,22300,B3
4,307,B4
5,312,B5
6,348,B6
7,8000,B7
8,256,B8
9,255,B9
10,500,B10
11,153,B11
12,118,B12
13,554,B13
14,114,B14
15,172,B15
16,86.4,B16

# Target: T6, Yhr016c SH3 (YSC84_YEAST), P32793
# Test: SPOT array
row,"normalised SPOT signal, Boehringer light units (BLU); mean over the file's lines of this peptide",Binder
1,28.4,B1
2,81,B2
3,202,B3
4,32.4,B4
5,19.5,B5
6,554,B6
7,173,B7
8,22.8,B8
9,26.4,B9
10,22.7,B10
11,23.9,B11
12,14.5,B12
13,3490,B13
14,8.4,B14
15,14.3,B15
16,19.7,B16

# Target: Sho1 SH3 (SHO1_YEAST), P40073
# Test: SPOT array
# Sequence of Sho1 SH3 (SHO1_YEAST), P40073 (P40073 295-366): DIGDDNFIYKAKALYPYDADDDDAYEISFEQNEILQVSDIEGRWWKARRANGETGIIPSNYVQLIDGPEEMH
row,"normalised SPOT signal, Boehringer light units (BLU); mean over the file's lines of this peptide",Binder
1,47.5,B1
2,54.1,B2
3,374,B3
4,204,B4
5,26.1,B5
6,661,B6
7,585,B7
8,131,B8
9,24.8,B9
10,263,B10
11,20.5,B11
12,1920,B12
13,1360,B13
14,31.8,B14
15,17.1,B15
16,56.9,B16
